Test results from PMC8924211 (Nature Communications, 2022).
Numbering of substitutions follows the chain as printed. Several values for one entry are separate records, joined by “and”; a condition that tells them apart may be missing. Equal values may be shown once.

Key:
[1] = biological target: T1, SNAP-GAL2R L169^ECL2A (human, UniProt O43603 1-387, L169^ECL2A, Lumi4-Tb on the SNAP tag)
T1 construct: also called L169A; source: HEK293, transfected, on cells; not shown: SNAP tag, N-terminal, kept
T1 sequence (looked up): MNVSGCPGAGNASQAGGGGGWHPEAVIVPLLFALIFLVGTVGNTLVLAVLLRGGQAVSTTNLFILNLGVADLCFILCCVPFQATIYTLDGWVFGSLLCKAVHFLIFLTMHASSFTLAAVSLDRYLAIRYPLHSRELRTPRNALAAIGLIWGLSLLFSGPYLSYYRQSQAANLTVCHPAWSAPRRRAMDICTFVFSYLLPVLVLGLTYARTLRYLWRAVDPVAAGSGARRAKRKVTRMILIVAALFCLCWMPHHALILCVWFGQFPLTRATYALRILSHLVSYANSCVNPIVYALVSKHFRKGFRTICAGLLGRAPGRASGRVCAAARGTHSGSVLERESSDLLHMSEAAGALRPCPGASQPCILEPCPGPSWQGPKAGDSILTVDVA

[2] = biological target: T2, SNAP-GAL2R A170^ECL2S (human, UniProt O43603 1-387, A170^ECL2S, Lumi4-Tb on the SNAP tag)
T2 construct: also called A170S; source: HEK293, transfected, on cells; not shown: SNAP tag, N-terminal, kept
T2 sequence (looked up): T1 sequence (looked up) with A169L, A170S

[3] = biological target: T3, SNAP-GAL2R L172^ECL2A (human, UniProt O43603 1-387, L172^ECL2A, Lumi4-Tb on the SNAP tag)
T3 construct: also called L172A; source: HEK293, transfected, on cells; not shown: SNAP tag, N-terminal, kept
T3 sequence (looked up): T1 sequence (looked up) with A169L, L172A

[4] = biological target: T4, SNAP-GAL2R R184^5.35A (human, UniProt O43603 1-387, R184^5.35A, Lumi4-Tb on the SNAP tag)
T4 construct: also called R184A; source: HEK293, transfected, on cells; not shown: SNAP tag, N-terminal, kept
T4 sequence (looked up): T1 sequence (looked up) with A169L, R184A

[5] = biological target: T5, SNAP-GAL2R L255^6.54A (human, UniProt O43603 1-387, L255^6.54A, Lumi4-Tb on the SNAP tag)
T5 construct: also called L255A; source: HEK293, transfected, on cells; not shown: SNAP tag, N-terminal, kept
T5 sequence (looked up): T1 sequence (looked up) with A169L, L255A

[6] = biological target: T6, SNAP-GAL2R V259^6.58A (human, UniProt O43603 1-387, V259^6.58A, Lumi4-Tb on the SNAP tag)
T6 construct: also called V259A; source: HEK293, transfected, on cells; not shown: SNAP tag, N-terminal, kept
T6 sequence (looked up): T1 sequence (looked up) with A169L, V259A

[7] = biological target: T7, SNAP-GAL2R T267^7.28A (human, UniProt O43603 1-387, T267^7.28A, Lumi4-Tb on the SNAP tag)
T7 construct: also called T267A; source: HEK293, transfected, on cells; not shown: SNAP tag, N-terminal, kept
T7 sequence (looked up): T1 sequence (looked up) with A169L, T267A

[8] = biological target: SNAP-GAL2R F264^ECL3A (human) (UniProt O43603)
[9] = biological target: SNAP-GAL2R I85^2.64A (human) (UniProt O43603)
[10] = biological target: SNAP-GAL2R L266^ECL3A (human) (UniProt O43603)
[11] = biological target: SNAP-GAL2R Q82^2.61A (human) (UniProt O43603)
[12] = biological target: SNAP-GAL2R Y271^7.32A (human) (UniProt O43603)
[13] = biological target: SNAP-GAL2R Y86^2.65A (human) (UniProt O43603)
[14] = biological target: T1, SNAP-GAL2R L169^ECL2A; remark: listed apart in the source
[15] = biological target: T2, SNAP-GAL2R A170^ECL2S; remark: listed apart in the source
[16] = biological target: T3, SNAP-GAL2R L172^ECL2A; remark: listed apart in the source
[17] = biological target: T8, SNAP-GAL2R I256^6.55A (human, UniProt O43603 1-387, I256^6.55A, Lumi4-Tb on the SNAP tag)
T8 construct: also called I256A; source: HEK293, transfected, on cells; not shown: SNAP tag, N-terminal, kept
T8 sequence (looked up): T1 sequence (looked up) with A169L, I256A

[18] = biological target: T6, SNAP-GAL2R V259^6.58A; remark: listed apart in the source
[19] = biological target: SNAP-GAL2R F264^ECL3A (human) (UniProt O43603); remark: listed apart in the source
[20] = biological target: SNAP-GAL2R L266^ECL3A (human) (UniProt O43603); remark: listed apart in the source
[21] = biological target: SNAP-GAL2R Y271^7.32A (human) (UniProt O43603); remark: listed apart in the source

Substance: galanin (full length, unlabeled) (peptide)
- calcium assay EC50 (galanin; HEK293/Gα16 cells) [1]: 93.5 nM and 82.5 nM and 22.5 nM
- calcium assay EC50 (galanin; HEK293/Gα16 cells) [2]: 10 nM and 8.08 nM and 12.4 nM
- calcium assay EC50 (galanin; HEK293/Gα16 cells) [3]: 59 nM and 71.7 nM and 55.4 nM
- calcium assay EC50 (galanin; HEK293/Gα16 cells) [4]: 138 nM and 115 nM and 58 nM
- calcium assay EC50 (galanin; HEK293/Gα16 cells) [5]: 153 nM and 293 nM
- calcium assay EC50 (galanin; HEK293/Gα16 cells) [6]: 290 nM and 275 nM and 205 nM
- calcium assay EC50 (galanin; HEK293/Gα16 cells) [7]: 3150 nM and 2330 nM and 1260 nM
- calcium assay EC50 (galanin; HEK293/Gα16 cells) [8]: 1760 nM and 2390 nM and 3590 nM
- calcium assay EC50 (galanin; HEK293/Gα16 cells) [9]: 5200 nM and 4440 nM and 1380 nM
- calcium assay EC50 (galanin; HEK293/Gα16 cells) [10]: 27900 nM and 7140 nM
- calcium assay EC50 (galanin; HEK293/Gα16 cells) [11]: 4680 nM and 4340 nM and 2980 nM
- calcium assay EC50 (galanin; HEK293/Gα16 cells) [12]: 515 nM and 678 nM and 969 nM
- calcium assay EC50 (galanin; HEK293/Gα16 cells) [13]: 3230 nM and 2210 nM

Substance: spexin (mature, 14 amino acids) (peptide)
- calcium assay EC50 (spexin) [14]: 7170 nM and 5140 nM and 1830 nM
- calcium assay EC50 (spexin) [15]: 95.4 nM and 151 nM (2×)
- calcium assay EC50 (spexin) [16]: 3120 nM and 10800 nM and 12100 nM
- calcium assay EC50 (spexin) [17]: 674 nM and 438 nM and 924 nM
- calcium assay EC50 (spexin) [18]: 1330 nM and 6620 nM and 6150 nM
- calcium assay EC50 (spexin) [19]: > 100000 nM
- calcium assay EC50 (spexin) [20]: 25100 nM and 15300 nM and 12000 nM
- calcium assay EC50 (spexin) [21]: 5960 nM and 1580 nM and 752 nM
